Experimental data: US7307063B2, “Melanocortin metallopeptides for treatment of sexual dysfunction” (Palatin Technologies, Inc., priority 2001, dated 2007)
Non-standard residues stand in square brackets, D forms with d. No end group written: not given here. *: point of attachment. Phenylacetyl(4-Ph) = O=C(Cc1ccc(-c2ccccc2)cc1)*; dIgl = N[C@@H](C(=O)O)C1Cc2ccccc2C1; Hydrocinnamoyl = O=C(CCc1ccccc1)*; 4‑Amc = not defined here; Nle = CCCC[C@H](N)C(=O)O; Ahp = NCCCCCCC(=O)O

Key:
hMC5-R = biological target: T1, hMC5-R (Homo sapiens, UniProt P33032); test: Competitive binding assay: inhibition of 125I-NDP-α-MSH binding to HEK-293 membranes with cloned human receptor subtype 5; details: Table 6; 1 μM; mean of triplicate
T1 construct: expressed in transfected cells; host or cells: HEK-293
T1 sequence (P33032 whole entry): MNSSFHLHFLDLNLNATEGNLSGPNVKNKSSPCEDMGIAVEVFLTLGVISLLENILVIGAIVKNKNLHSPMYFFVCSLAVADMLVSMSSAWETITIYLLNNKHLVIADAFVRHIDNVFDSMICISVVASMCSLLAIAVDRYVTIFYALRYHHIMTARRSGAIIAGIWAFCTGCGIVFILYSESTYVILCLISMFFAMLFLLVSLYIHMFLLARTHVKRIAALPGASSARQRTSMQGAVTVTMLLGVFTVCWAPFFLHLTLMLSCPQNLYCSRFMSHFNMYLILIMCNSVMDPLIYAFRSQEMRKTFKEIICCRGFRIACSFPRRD
Procedure: (§1) Rhenium-complexed metallopeptides of the formulas given in Table 1 were prepared, with the metallopeptides complexed with rhenium using the rhenium transfer agent ReOCl3(PPh3)2 in the presence of 1,8-Diazabicyclo[5,4,0] undec-7-ene as a base, as disclosed in International Application PCT/US00/16396, filed Jun. 14, 2000, Melanocortin Metallopeptide Constructs, Combinatorial Libraries and Applications, incorporated by reference herein. Affinities of compounds were measured using membranes from HEK-293 cells containing cloned human melanocortin receptor subtypes 3, 4 and 5. MC1-R membranes were isolated from B16—F10 mouse melanoma cells. The assay tube also contained a chosen concentration of the test peptide of this invention, complexed to a rhenium metal ion as indicated, for determining its efficacy in inhibiting the binding of ^125I-NDP-α-MSH to its receptor. Non-specific binding was measured by complete inhibition of binding of ^125I-NDP-α-MSH in the assay with the presence of 1 μM α-MSH. 100% specific binding was defined as the difference in radioactivity (cpm) bound to cell membranes in the absence and presence of 1 μM α-MSH. The cpm obtained in presence of test compounds were normalized with respect to 100% specific binding to determine the percent inhibition of ^125I-NDP-α-MSH binding.
(§2) Peptide sequences set forth in Table 6 were prepared using conventional synthetic means. The resulting sequences were rhenium-complexed to form metallopeptides, with the metallopeptides complexed with rhenium using the rhenium transfer agent ReOCl3(PPh3)2 in the presence of 1,8-Diazabicyclo[5,4,0] undec-7-ene as a base. Percent inhibition was determined as in Example 1 using the Re-complexed metallopeptides, using the same methods as described therein. All measures are means of triplicate determinations.

hMC2-R = biological target: T2, hMC2-R (Homo sapiens, UniProt P41968); test: Competitive binding assay of additional compounds, Table 6 hMC2-R; details: 1 μM, mean of triplicate
T2 construct: expressed in transfected cells; host or cells: HEK-293
T2 sequence (P41968 whole entry): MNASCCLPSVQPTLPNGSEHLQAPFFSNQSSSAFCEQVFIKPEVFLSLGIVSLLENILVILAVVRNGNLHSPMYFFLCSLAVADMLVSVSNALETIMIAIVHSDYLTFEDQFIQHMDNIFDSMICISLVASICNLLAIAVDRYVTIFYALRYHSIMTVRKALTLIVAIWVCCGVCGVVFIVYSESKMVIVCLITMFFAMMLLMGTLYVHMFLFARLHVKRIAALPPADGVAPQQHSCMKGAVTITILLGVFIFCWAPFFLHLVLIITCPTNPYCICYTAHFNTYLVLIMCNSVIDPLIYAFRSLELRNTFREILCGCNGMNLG
Procedure: [The source words this procedure for another target and reports this target under the same test.] as §1, §2

MC4-R = biological target: T3, MC4-R (Homo sapiens, UniProt P32245); test: Competitive binding assay: inhibition of 125I-NDP-α-MSH binding to HEK-293 membranes with cloned human receptor subtype 4; details: Table 6; 1 μM; mean of triplicate
T3 construct: expressed in transfected cells; host or cells: HEK-293
T3 sequence (P32245 whole entry): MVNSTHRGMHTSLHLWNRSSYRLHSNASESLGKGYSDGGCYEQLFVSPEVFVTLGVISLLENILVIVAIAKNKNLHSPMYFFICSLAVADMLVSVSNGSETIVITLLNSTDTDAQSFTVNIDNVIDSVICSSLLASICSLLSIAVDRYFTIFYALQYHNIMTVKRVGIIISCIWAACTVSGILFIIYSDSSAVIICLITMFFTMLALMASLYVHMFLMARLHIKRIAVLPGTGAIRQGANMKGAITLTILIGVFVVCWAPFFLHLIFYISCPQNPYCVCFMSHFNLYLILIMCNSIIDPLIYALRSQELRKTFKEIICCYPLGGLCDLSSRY
Procedure, shortened: (§3)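 Radioligand displacement: Re-metallopeptide at a chosen concentration versus 125I-NDP-α-MSH on receptor membranes. Values are percent inhibition of specific binding, defined using 1 μM α-MSH; added peptides were run in triplicate and averaged.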

MC1-R = biological target: T4, MC1-R (Mus musculus, UniProt Q01727); test: Competitive binding assay: inhibition of 125I-NDP-α-MSH binding to membranes from B16-F10 mouse melanoma cells; details: Table 6; 1 μM; mean of triplicate
T4 construct: MC1-R membranes were isolated from B16—F10 mouse melanoma cells; endogenous in cells; host or cells: B16-F10 mouse melanoma cells
T4 sequence (Q01727 whole entry): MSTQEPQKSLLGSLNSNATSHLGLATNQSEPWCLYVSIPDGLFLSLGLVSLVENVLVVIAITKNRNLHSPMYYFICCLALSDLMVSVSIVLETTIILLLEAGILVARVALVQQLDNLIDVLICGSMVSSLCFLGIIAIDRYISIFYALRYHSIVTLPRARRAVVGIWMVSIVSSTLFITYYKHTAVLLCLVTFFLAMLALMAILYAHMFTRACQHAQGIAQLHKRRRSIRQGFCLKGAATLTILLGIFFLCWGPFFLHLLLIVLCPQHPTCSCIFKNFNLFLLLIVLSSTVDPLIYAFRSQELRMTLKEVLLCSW
Procedure, shortened: as §3

Row | Substance | % Inhibition of Binding hMC5-R (hMC5-R) [%] | % Inhibition of Binding hMC2-R (hMC2-R) [%] | % Inhibition of Binding hMC4-R (MC4-R) [%] | % Inhibition of Binding MC1-R (MC1-R) [%]
1 | 3′-Phenylpropionyl-D-Phe-Arg-Cys-Trp-NH2 (Hydrocinnamoyl-[dF]RCW-NH2; not fully specified; printed as 3′-Phenylpropionyl-D-Phe-Arg-Cys-Trp-NH2) | 44 | 0 | 0 | 3
2 | 3′-Phenylpropionyl-His-D-Phe-Arg-Cys-Trp-NH2 (Hydrocinnamoyl-H[dF]RCW-NH2; not fully specified; printed as 3′-Phenylpropionyl-His-D-Phe-Arg-Cys-Trp-NH2) | 50 | 2 | 16 | 75
3 | 7-amino-Heptanoyl-D-Igl-D-Phe-Arg-Trp-Cys-NH2 ([Ahp][dIgl][dF]RWC-NH2; not fully specified; printed as 7-amino-Heptanoyl-D-Igl-D-Phe-Arg-Trp-Cys-NH2) | 35 | 0 | 5 | 47
4 | Ac-Ala-Ala-His-D-Phe-Arg-Cys-Trp-NH2 ({Ac-Ala-Ala-H2N}-[dF]RCW-NH2; not fully specified; printed as Ac-Ala-Ala-His-D-Phe-Arg-Cys-Trp-NH2) | 17 | 0 | 4 | 76
5 | Ac-Ala-His-D-Phe-Arg-Cys-Trp-NH2 ({Ac-Ala-H2N}-[dF]RCW-NH2; not fully specified; printed as Ac-Ala-His-D-Phe-Arg-Cys-Trp-NH2) | 9 | 0 | 0 | 61
6 | Ac-Nle-Ala-D-Tyr-D-Phe-Arg-Cys-Trp-NH2 (Ac-[Nle]A[dY][dF]RCW-NH2; not fully specified; printed as Ac-Nle-Ala-D-Tyr-D-Phe-Arg-Cys-Trp-NH2) | 0 | 0 | 1 | 15
7 | Ac-Nle-Ala-Glu-D-Phe-Arg-Cys-Trp-NH2 (Ac-[Nle]AE[dF]RCW-NH2; not fully specified; printed as Ac-Nle-Ala-Glu-D-Phe-Arg-Cys-Trp-NH2) | 0 | 3 | 12 | 0
8 | Ac-Nle-Ala-His-D-Phe-Arg-D-Nal 1′-Cys-NH2 | 5 | 3 | 47 | 93
9 | Ac-Nle-Ala-His-D-Phe-Arg-Nal 1′-Cys-NH2 | 82 | 22 | 65 | 95

Second part, the substance after the results:

Row | % Inhibition of Binding hMC5-R (hMC5-R) [%] | % Inhibition of Binding hMC2-R (hMC2-R) [%] | % Inhibition of Binding hMC4-R (MC4-R) [%] | % Inhibition of Binding MC1-R (MC1-R) [%] | Substance
10 | 80 | 19 | 73 | 0 | 3′-Bromo phenyl acetyl-Lys-Ala-D-Phe(4′-Me)-Cys-Trp-NH2
11 | 6 | 0 | 6 | 51 | 4-Amc-D-Phe-Arg-Trp-Cys-NH2 ({4‑Amc}-[dF]RWC-NH2; not fully specified; printed as 4-Amc-D-Phe-Arg-Trp-Cys-NH2; reading uncertain)
12 | 50 | 0 | 0 | 1 | 4′-Biphenylacetyl-D-Phe-Arg-Cys-Trp-NH2 ({Phenylacetyl(4-Ph)}-[dF]RCW-NH2; not fully specified; printed as 4′-Biphenylacetyl-D-Phe-Arg-Cys-Trp-NH2)
13 | 32 | 0 | 10 | 8 | 7-amino-haptanoyl-D-Igl-D-Phe-Arg-Cys-NH2
14 | 34 | 0 | 6 | 3 | 7-amino-haptanoyl-Ser(Bzl)-D-Nal 2′-Arg-Cys-NH2
15 | 0 | 0 | 3 | 5 | Ac-Ala-Ala-Ala-D-Phe-Arg-Cys-Trp-NH2 (Ac-AAA[dF]RCW-NH2; not fully specified; printed as Ac-Ala-Ala-Ala-D-Phe-Arg-Cys-Trp-NH2)
16 | 31 | 0 | 0 | 75 | Ac-Leu-His-D-Phe-Arg-Cys-Trp-NH2 ({Ac-Leu-H2N}-[dF]RCW-NH2; not fully specified; printed as Ac-Leu-His-D-Phe-Arg-Cys-Trp-NH2)
17 | 20 | 9 | 12 | 34 | Ac-Nle-Ala-Ala-D-Phe-Arg-Cys-Trp-NH2 (Ac-[Nle]AA[dF]RCW-NH2; not fully specified; printed as Ac-Nle-Ala-Ala-D-Phe-Arg-Cys-Trp-NH2)
18 | 59 | 26 | 39 | 92 | Ac-Nle-Ala-Arg-D-Phe-Arg-Cys-Trp-NH2 (Ac-[Nle]AR[dF]RCW-NH2; not fully specified; printed as Ac-Nle-Ala-Arg-D-Phe-Arg-Cys-Trp-NH2)
19 | 54 | 0 | 90 | 100 | Ac-Nle-Ala-His-D-Phe-Arg-D-Nal 2′-Cys-NH2
20 | 0 | 0 | 1 | 58 | Ac-Nle-Ala-His-D-Phe-Arg-His-Cys-NH2 ({Ac-Nle-Ala-H2N}-[dF]RHC-NH2; not fully specified; printed as Ac-Nle-Ala-His-D-Phe-Arg-His-Cys-NH2)
